Measured values as given in article PMC3433420, “Comprehensive Binary Interaction Mapping of SH2 Domains via Fluorescence Polarization Reveals Novel Functional Diversification of ErbB Receptors” (PLoS ONE, 2012).
“And” between values parts separate entries of the source, which are not always exact repeats. Equal values may be shown once. Non-standard residues stand in square brackets, D forms with d. No end group written: not given here. pY = N[C@@H](Cc1ccc(OP(=O)(O)O)cc1)C(=O)O; Rhodamine = not defined here

Legend:
Experiment in all cases: peptide or protein array; SH2/PTB proteins spotted on aldehyde slides, rhodamine peptide titrated in buffer B (20 mM HEPES, 100 mM KCl, 0.1% Tween-20, 5 mM DTT, pH 7.8), 1 h at room temperature; replicate assays
Conditions in all cases: both partners purified
[1] = target: T1, PLCG2 tandem SH2 domains (human)
T1 construct: PLCG2, human; also called PLCG2-NC; source: bacterial expression, purified
T1 sequence (P16885 whole entry, looked up): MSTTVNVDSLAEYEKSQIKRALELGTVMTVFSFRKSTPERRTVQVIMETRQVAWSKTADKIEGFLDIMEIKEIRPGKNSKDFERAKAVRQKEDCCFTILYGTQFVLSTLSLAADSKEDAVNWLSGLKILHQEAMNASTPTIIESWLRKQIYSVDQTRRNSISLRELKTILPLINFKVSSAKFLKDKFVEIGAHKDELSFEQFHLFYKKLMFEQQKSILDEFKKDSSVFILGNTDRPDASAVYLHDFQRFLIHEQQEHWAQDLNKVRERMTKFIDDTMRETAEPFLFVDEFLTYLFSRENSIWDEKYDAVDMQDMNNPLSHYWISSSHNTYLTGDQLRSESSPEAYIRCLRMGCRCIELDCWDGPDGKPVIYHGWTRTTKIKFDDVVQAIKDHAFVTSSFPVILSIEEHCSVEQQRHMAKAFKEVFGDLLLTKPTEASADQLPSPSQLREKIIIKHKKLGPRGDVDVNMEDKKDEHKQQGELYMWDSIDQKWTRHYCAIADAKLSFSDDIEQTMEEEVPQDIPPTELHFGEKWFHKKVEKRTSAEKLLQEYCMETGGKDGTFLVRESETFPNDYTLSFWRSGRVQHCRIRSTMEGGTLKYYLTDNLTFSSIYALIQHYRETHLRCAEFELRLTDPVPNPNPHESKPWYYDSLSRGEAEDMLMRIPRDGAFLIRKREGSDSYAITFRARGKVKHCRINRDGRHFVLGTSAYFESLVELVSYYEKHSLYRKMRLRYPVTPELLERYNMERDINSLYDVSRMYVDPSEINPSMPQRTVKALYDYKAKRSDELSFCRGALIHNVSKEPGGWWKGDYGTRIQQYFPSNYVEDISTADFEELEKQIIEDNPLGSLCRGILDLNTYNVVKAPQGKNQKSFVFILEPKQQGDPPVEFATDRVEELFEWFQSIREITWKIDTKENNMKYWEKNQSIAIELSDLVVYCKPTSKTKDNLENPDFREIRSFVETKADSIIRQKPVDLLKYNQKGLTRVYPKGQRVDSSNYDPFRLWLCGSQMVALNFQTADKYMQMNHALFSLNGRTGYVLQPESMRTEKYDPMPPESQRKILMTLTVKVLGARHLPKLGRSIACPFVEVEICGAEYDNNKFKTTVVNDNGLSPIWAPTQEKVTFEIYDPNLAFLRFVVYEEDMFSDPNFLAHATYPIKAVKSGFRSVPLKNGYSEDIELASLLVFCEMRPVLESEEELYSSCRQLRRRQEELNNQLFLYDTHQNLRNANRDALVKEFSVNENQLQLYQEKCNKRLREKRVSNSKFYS

[2] = target: T2, FGR SH2 domain (human, UniProt P09769 144-241)
T2 construct: FGR, human; source: bacterial expression, purified

[3] = target: T3, BTK SH2 domain (human, UniProt Q06187 281-377)
T3 construct: BTK, human; source: bacterial expression, purified

[4] = target: T4, ZAP70 C-terminal SH2 domain (human, UniProt P43403 1-619)
T4 construct: ZAP70, human; source: bacterial expression, purified
T4 sequence (looked up): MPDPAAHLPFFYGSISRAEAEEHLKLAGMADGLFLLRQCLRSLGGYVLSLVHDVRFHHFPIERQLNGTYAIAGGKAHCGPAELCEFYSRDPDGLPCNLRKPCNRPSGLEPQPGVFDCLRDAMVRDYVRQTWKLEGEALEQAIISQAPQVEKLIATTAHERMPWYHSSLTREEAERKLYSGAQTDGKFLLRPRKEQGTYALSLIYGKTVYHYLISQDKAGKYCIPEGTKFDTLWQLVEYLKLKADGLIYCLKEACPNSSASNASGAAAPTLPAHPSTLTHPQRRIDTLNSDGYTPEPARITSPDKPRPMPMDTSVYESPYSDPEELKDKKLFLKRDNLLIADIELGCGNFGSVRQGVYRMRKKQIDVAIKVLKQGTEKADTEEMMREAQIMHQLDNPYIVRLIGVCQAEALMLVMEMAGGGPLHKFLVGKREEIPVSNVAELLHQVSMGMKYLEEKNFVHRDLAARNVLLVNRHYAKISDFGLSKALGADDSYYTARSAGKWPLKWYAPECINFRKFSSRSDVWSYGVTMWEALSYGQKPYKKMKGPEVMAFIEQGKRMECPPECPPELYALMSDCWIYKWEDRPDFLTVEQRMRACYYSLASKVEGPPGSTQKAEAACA

[5] = target: T5, SOCS6 SH2 domain (human, UniProt O14544 384-491)
T5 construct: SOCS6, human; source: bacterial expression, purified
T5 sequence (looked up): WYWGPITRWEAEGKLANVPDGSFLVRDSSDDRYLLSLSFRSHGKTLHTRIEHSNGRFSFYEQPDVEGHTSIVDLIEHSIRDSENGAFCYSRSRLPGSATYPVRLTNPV

[6] = target: T6, SH2D1A SH2 domain (human, UniProt O60880 6-104)
T6 construct: SH2D1A, human; source: bacterial expression, purified
T6 sequence (looked up): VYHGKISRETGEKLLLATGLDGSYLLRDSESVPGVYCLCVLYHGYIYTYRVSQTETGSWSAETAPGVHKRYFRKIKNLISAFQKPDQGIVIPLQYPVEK

T3 sequence (Q06187 281-377): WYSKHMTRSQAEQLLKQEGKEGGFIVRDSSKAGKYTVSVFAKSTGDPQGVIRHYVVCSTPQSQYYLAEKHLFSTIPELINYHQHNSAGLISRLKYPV

B1: ErbB2 pY1127 phosphopeptide, rhodamine-labelled, for protein microarrays (peptide)
chain: Rhodamine-ETDG[pY]VAPLTCSD
modifications: reading uncertain
B1 was tested, and the Kd [1] was 0.578 µM and 1.6 µM, the Kd [2] was 5.18 µM and the Kd [3] was 4.71 µM and 5.89 µM. The Kd [4] was 2.2 µM and 3.21 µM, the Kd [5] was 8.93 µM and 5.2 µM and the Kd [6] was 1.6 µM and 4.59 µM.
